Tests used:
[1] = substrate: CC(C)(COP(=O)(O)OP(=O)(O)OC[C@H]1O[C@@H](n2cnc3c(N)ncnc32)[C@H](O)[C@@H]1OP(=O)(O)O)[C@@H](O)C(=O)NCCC(=O)NCCSC(=O)/C=C/c1ccc(O)c(O)c1; assay: UPLC-DAD endpoint assay, Michaelis-Menten; format: biochemical, Echinacea purpurea; conditions: PBS pH 7.0, 30 °C
[2] = substrate: CC(C)(COP(=O)(O)OP(=O)(O)OC[C@H]1O[C@@H](n2cnc3c(N)ncnc32)[C@H](O)[C@@H]1OP(=O)(O)O)[C@@H](O)C(=O)NCCC(=O)NCCSC(=O)/C=C/c1ccc(O)cc1; assay: UPLC-DAD endpoint assay, Michaelis-Menten; format: biochemical, Echinacea purpurea; conditions: PBS pH 7.0, 30 °C
[3] = substrate: COc1cc(/C=C/C(=O)SCCNC(=O)CCNC(=O)[C@H](O)C(C)(C)COP(=O)(O)OP(=O)(O)OC[C@H]2O[C@@H](n3cnc4c(N)ncnc43)[C@H](O)[C@@H]2OP(=O)(O)O)ccc1O; assay: UPLC-DAD endpoint assay, Michaelis-Menten; format: biochemical, Echinacea purpurea; conditions: PBS pH 7.0, 30 °C
[4] = substrate: O=C(O)[C@]1(O)C[C@@H](O)[C@@H](O)[C@H](O)C1; assay: UPLC-DAD endpoint assay, Michaelis-Menten; format: biochemical, Echinacea purpurea; conditions: 50 μM caffeoyl CoA, PBS pH 7.0, 30 °C
[5] = substrate: O=C(O)C(O)C(O)C(=O)O; assay: purified protein, by the assay type; design: Michaelis-Menten kinetics of recombinant EpHTT, product quantified by UPLC-DAD; conditions: pH 7.0; 16.0 °C
purified protein [6] = substrate: O=C(O)C(O)C(O)C(=O)O; assay: purified protein; conditions: 50 μM caffeoyl CoA, PBS pH 7.0, 30 °C, pH 7.0
purified protein [7] = substrate: O=C(/C=C/c1ccc(O)c(O)c1)O[C@@H](C(=O)O)[C@@H](O)C(=O)O; assay: purified protein; format: biochemical, Echinacea purpurea; conditions: 200 μM chlorogenic acid as acyl donor, 10 mM Na2HPO4, pH 4.0, 30 °C
purified protein [8] = substrate: O=C(/C=C/c1ccc(O)c(O)c1)O[C@@H]1O[C@H](CO)[C@@H](O)[C@H](O)[C@H]1O; assay: purified protein; format: biochemical, Echinacea purpurea; conditions: 200 μM caftaric acid as acyl acceptor, 10 mM Na2HPO4, pH 4.0, 30 °C
purified protein [9] = substrate: O=C(/C=C/c1ccc(O)c(O)c1)O[C@@H]1C[C@](O)(C(=O)O)C[C@@H](O)[C@H]1O; assay: purified protein; conditions: 200 μM caftaric acid as acyl acceptor, 10 mM Na2HPO4, pH 4.0, 30 °C, pH 4.0

B1: EpHQT (Echinacea purpurea) (protein)
chain: MNITITKSSLIPPSETLPGSETRLWTSNLDLVVGRIHILTVYFYRPNGSSNFFDPNAMKQALADVLVSFYPMAGRLGRDESGRVVINCNGEGALFVEAEADSCLDDFGEFTPSPELRSLTPAVDYSGDVSSYPLFFAQVTHFKCGGVSLGCGVFHTLSDGLSSLHFINTWSDVARGLSVAIPPFIDRTLLRAREPPTPTHDHVEYHPPPTMTMLNTIQKPGPLSKSSTTMLKLTLDQLNTLKAKTKTEGGPSYSTYEILAAHIWRCACKARGLPDDQLTKLYVATDGRSRLSPHLPRGYLGNVVFTATPVATSGALTSDSLQNAAKLIHTTLTQMDNEYLRSAIDYLEIQPDLSALIRGPSYFASPNLNINAWSRLPVHDADFGWGRPVFMGPAIILYEGTVYVLPSPNNDRSVSLAVCLDAKEQPLFEKYLYEF
notes: full-length CDS, N-terminal 6xHis (pDEST17), E. coli BL21(DE3), Ni-NTA purified
Km ([1]; 1 mM quinic acid): 7.231 ± 1.577 µM | kcat ([1]; 1 mM quinic acid): 0.111 ± 0.005 s⁻¹ | Km ([2]; 1 mM quinic acid): 70.547 ± 43.952 µM | kcat ([2]; 1 mM quinic acid): 0.060 ± 0.036 s⁻¹ | Km ([3]; 1 mM quinic acid): 38.623 ± 14.588 µM | kcat ([3]; 1 mM quinic acid): 0.0007 ± 0.00009 s⁻¹ | Km [4]: 576.167 ± 72.176 µM | kcat [4]: 0.157 ± 0.007 s⁻¹

B2: EpHTT (Echinacea purpurea) (protein)
chain: MKVVVRESTVVRPAEESPPRKLWNSSLDLTNLNGHTLVVYFYRPNGASDFFNTKLMKDTLSRMLVAFYPFAGRFKYDQHGRVETDCQGQGALFLEAESDGLIDDFGDFLPTLEYLKLIPAIDYSKGIDSFPLMVFQVTFFKCGGVSLGVGMHHHLVDGMSGLHFTNTWADMTRGLDITLPPFIDRTLLRPRDPPRPVFEHIEYQSDPTPLKVSLDETKTSFSMFKLTRNQLALLKEKAKEEGNKISYTTFEMFSAHVWKCVCKARGLPDDVETKLYLPVDGRARLQPPLPPGYFGNVIFDAAVIATAGDIKSKPIWYAAGKIHDSLARMNNDYLRSAIDYLEQHNCKKPYVDYNTNLRINSWARLPIHDADFGWGRPIFMGRTGLPSVGRVYVLPSAMDDGSLSIILGLEAEEMKVFGNLLYAI
notes: as for B1
Km [5]: 458.600 ± 80.431 µM | kcat [5]: 0.176 ± 0.052 s⁻¹ | kcat/Km [5]: 390 ± 122 M⁻¹ s⁻¹ | Km ([1]; 0.5 mM tartaric acid): 34.760 ± 6.832 µM | kcat ([1]; 0.5 mM tartaric acid): 0.588 ± 0.064 s⁻¹ | Km ([2]; 0.5 mM tartaric acid): 22.027 ± 3.818 µM | kcat ([2]; 0.5 mM tartaric acid): 0.007 ± 0.001 s⁻¹ | Km ([3]; 0.5 mM tartaric acid): 48.010 ± 11.329 µM | kcat ([3]; 0.5 mM tartaric acid): 0.122 ± 0.011 s⁻¹ | Km (purified protein [6]): 841.967 ± 35.474 µM | kcat (purified protein [6]): 0.685 ± 0.016 s⁻¹

B3: EpCAS (Echinacea purpurea) (protein)
chain: ASTIVKNLPGFHGDLPCTIETGYIGVGADDEVQFFYYFVESERDPSRDPLIYYLTGGPGTTALYPFLFQIGPLSINYDNSTWEKLTLELNPYSWSKAANVLFVDLPAGTGFSYGTTYEATKSSDSISAQQGYEFLIKWLEENPRFLNNSLYIAGTSYMGIVVPVVTLEVYKGNERGDQPQLNVKGYAISSPLTDKFSDFNSRFEFAHRAALISDDIYKSAKNNCGGNYIYNAVENTECARSLQRFEECTSRINEANILDPLCDEDSQDPVCGEVGDKYLKYYGNDKEVQKALGVREGTIEEFVKTNQSIHYLINKEDQDCYSYDIFSTIIYHKSLVSRNCQALILSADHDFTFPYVGVEQWITSLNLPLESPWNPWFVNNQVAGYRLKYARNGYSLTYATVKGAGHSIALYKPRETWVILDEWLASNSYLSDS
notes: full-length cDNA, C-terminal 6xHis (pESC-His), S. cerevisiae BY4741, Ni-NTA purified; vacuolar targeting peptide Met1-His24
Km (purified protein [7]): 53.910 ± 0.613 µM | kcat (purified protein [7]): 0.005 ± 0.00002 s⁻¹ | Km (purified protein [8]): 121.400 ± 12.163 µM | kcat (purified protein [8]): 1.09e-05 ± 8.7e-07 s⁻¹ | Km (purified protein [9]): 83.910 ± 7.811 µM | kcat (purified protein [9]): 0.005 ± 0.0003 s⁻¹

From PMC7946891, “Versatility in acyltransferase activity completes chicoric acid biosynthesis in purple coneflower” (Nature Communications, 2021)
